Measured values: paper PMC7875320

Biological target: human insulin (Homo sapiens, UniProt P01308;P01308 25-54;90-110)
Experiment: graphene field-effect transistor

human insulin, sequence (P01308 25-54, chain 1 of 2): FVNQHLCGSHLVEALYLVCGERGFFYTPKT
human insulin, sequence (P01308 90-110, chain 2 of 2): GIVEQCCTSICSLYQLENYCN

GGTGGTGGGGGGGGTTGGTAGGGTGTCTTC (structured_DNA, 5'-NH2 (amine)) [IGA3]
Kd: 35 nM
